Assay results taken from patent publication US20130225478A1 (YEDA RESEARCH AND DEVELOPMENT, published 2013).
Values belong to the binder of their own block, whether it stands above or below them. Ends that are not written are not given here.

Experiments:
mTLR1 TM N′ = biological target: T1, mTLR1 TM N′ (mouse, N-terminal fluorescein (FRET donor) or N-terminal rhodamine (TAMRA) label, depending on the assay; synthesized on Rink amide MBHA resin); assay: FRET in PC:Cholesterol LUVs, fluorescein-mTLR1 TM N′ donor, rhodamine-Cp acceptor (FIG. 3A)
T1 construct: Synthetic peptide; Tested in PC:Cholesterol LUVs or HEPES buffer; also called mTLR1 N′ TM; TLR1 TM N-terminus peptide
T1 peptide: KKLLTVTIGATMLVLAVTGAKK
Description: FIGS. 3A-3C show FRET between mTLR1 TM N′ (SEQ ID NO:77) and other TM peptides. mTLR1 TM N′ peptide labeled with fluorescein (donor) and loaded on PC:Cholesterol LUVs. Changes in the intensity of the emission signal were monitored between 500 to 600 nm, upon the addition of successive amounts of rhodamine labeled mTLR1 TM N′ (SEQ ID NO:77; homodimers, 3B) and mTLR2 TM N′-CtoA (SEQ ID NO:88; heterodimers, 3C). Rhodamine labeled TCRα TM domain peptide (Cp; […]-NH2, SEQ ID NO:123) was used as a negative control (3A).
(§1) Large unilamellar vesicles (LUVs) composed of phosphatidylcholine (PC) and cholesterol (10:1, w/w), were prepared using the extrusion method as described previously (Cohen et al, 2008). The fluorescence experiments were performed with pairs of peptides using fluorescein labeled peptides as donors and rhodamine labeled peptides as acceptors. Fluorescence spectra were obtained at room temperature, with excitation set at 494 nm (10 nm slit) and emission scan at 500-600 nm (10 nm slits), by a Cary eclipse fluorescence spectrophotometer (Varian Inc., Palo Alto, Calif.). […] Fluorescence spectra were obtained before and after the addition of the rhodamine labeled peptides. Fluorescence values were corrected by subtracting the changes in emission obtained by adding HEPES only. […]

mTLR1 TM C′-CtoA = biological target: T2, mTLR1 TM C′-CtoA (mouse, N-terminal fluorescein (FRET donor) or N-terminal rhodamine (TAMRA) label, depending on the assay; synthesized on Rink amide MBHA resin); assay: FRET in PC:Cholesterol LUVs, fluorescein-mTLR1 TM C′-CtoA donor, rhodamine-Cp acceptor (FIG. 2A)
T2 construct: Synthetic peptide; Tested in PC:Cholesterol LUVs or HEPES buffer; also called mTLR1 C′ TM (C to A); TLR1 TM C-terminus peptide
T2 peptide: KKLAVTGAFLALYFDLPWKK
Description: FIGS. 2A-2C show fluorescence resonance energy transfer (FRET) between mTLR1 TM C′-CtoA (SEQ ID NO:83) and other TM peptides. mTLR1 TM C′ peptide was labeled with fluorescein (Donor) and loaded on PC:Cholesterol large unilamellar vesicles (LUVs). Changes in the intensity of the emission signal were monitored between 500 to 600 nm, upon the addition of successive amounts of rhodamine labeled mTLR1 TM C′-CtoA (SEQ ID NO:83; homodimers, 2B) and mTLR2 TM C′-CtoA (SEQ ID NO:86; heterodimers, 2C). Rhodamine labeled TCRα TM domain peptide (Cp; […]-NH2, SEQ ID NO:123) was used as a negative control (2A).
as §1

[1] = biological target: the molecule itself; assay: self-assembly assay, rhodamine dequenching after proteinase K, PC:Cholesterol LUVs (FIG. 7D)
Description: (7A-7B) Rhodamine conjugated TLR peptides mTLR2 TM N′-CtoA (SEQ ID NO:88), mTLR2 TM C′-CtoA (SEQ ID NO:86), mTLR1 TM N′ (SEQ ID NO:77) and mTLR1 TM C′-CtoA (SEQ ID NO:83), were added to HEPES solution and their emission at 585 nm was recorded before and after the addition of proteinase K. The addition of the proteinase K is indicated by a black arrow. mTLR1 TM C′-CtoA (SEQ ID NO:83), mTLR1 TM N′ (SEQ ID NO:77) and mTLR2 TM C′-CtoA (SEQ ID NO:86) are capable to self assemble in solution, to a very slight extent (7A). mTLR2 TM N′-CtoA (SEQ ID NO:88) highly oligomerise in solution (black line, 7B) and is partially dissociated in the presence of LUVs (gray line, 7B). […] LL37 is shown as an example for a peptide that is highly oligomerised in liposomes (7D).
We have tested this characteristic, both in solution and on a membrane interface. We measured the initial emission of rhodamine labeled peptides at 580 nm in solution only, or in a solution containing PC:Cholesterol LUVs, and then followed the increase of the emission over time after the addition of protease-K to the medium. […] The known oligomeric antimicrobial peptide LL37 (Rosenfeld et al., 2006a) was used as a positive control.

- binding result (mTLR1 TM N′): no binding
- binding result (mTLR1 TM C′-CtoA): no binding
B1: Cp, the core TM peptide of TCRα (peptide)
peptide: GLRILLLKV-NH2
modifications: also: rhodamine label
notes: Negative control in the FRET experiments; also called TCRα TM domain peptide

B2: LL37 (peptide, UniProt P49913 134-170, looked up)
peptide: LLGDFFRKSKEKIGKEFKRIVQRIKDFLRNLVPRTES
modifications: also: rhodamine label
notes: Positive control of the self-assembly assay; LL-37 is the C-terminal 37 residues of the cathelicidin precursor; also called oligomeric antimicrobial peptide LL37
- binding result [1]: binds
